Source: the supplement of paper PMC10065799, “High-throughput profiling of sequence recognition by tyrosine kinases and SH2 domains using bacterial peptide display” (eLife, 2023)

molecular target: Grb2 SH2 (UniProt P62993); experiment: SH2 binding enrichment of the phosphorylated peptide, bacterial display (enrichment ratio); higher = better substrate or ligand; peptides without Tyr show the background
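For SH2 binding enrichment of the phosphorylated peptide, bacterial display in this document: peptide library displayed on the E. coli surface as eCPX fusions, selected cells deep-sequenced, score is each peptide's frequency after selection divided by its frequency in the input.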
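For phosphorylation enrichment, bacterial display in this document: 11-residue human phosphosite peptides and single-mutation variants displayed on the E. coli surface, counted by deep sequencing, each peptide's frequency after selection divided by its frequency in the unselected input library; frequency after pTyr selection over input frequency; kinase dosed for 20-30% of maximal phosphorylation in three min.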

Grb2 SH2, sequence (P62993 whole entry, looked up, the tested form may be a part): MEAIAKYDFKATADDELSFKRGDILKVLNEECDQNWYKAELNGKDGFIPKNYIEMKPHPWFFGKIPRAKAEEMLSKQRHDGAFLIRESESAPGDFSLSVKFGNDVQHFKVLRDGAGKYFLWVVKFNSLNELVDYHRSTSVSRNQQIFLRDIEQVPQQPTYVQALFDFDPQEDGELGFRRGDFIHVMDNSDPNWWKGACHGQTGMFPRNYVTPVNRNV

Row | Sequence | SH2 binding enrichment
1 | MRALIYNSSTA [PLEKHA7_Y243] | 0.794
2 | ILTLKYPIELG [ACTA1_Y71_H75L] | 1.14
3 | QDEHGYIFRCF [HSPB1_Y133_S135F] | 0.702
4 | LSGFGYRLSDQ [PDCD6_Y124] | 0.869
5 | LEDDVYRKTCT [XPA_Y257_M256V] | 0.604
6 | RGNMFYENSFA [EGFR_Y113_YF] | 18.9
7 | CNPLRYPTIMI [OR6K6_Y160] | 0.822
8 | SLLTDYSPQLQ [OTC_Y345] | 0.708
9 | LIQRNYKLAAQ [ALPK2_Y1975] | 0.961
10 | ILTLKYPIEHG [ACTA1_Y71] | 0.816
11 | ESSKAYERALS [TTC37_Y1074] | 0.787
12 | CSSPTYRDCLQ [LARGE2_Y682_R677C] | 0.94
13 | YSMGCYEIYLG [HMGCL_Y198_S201Y] | 0.713
14 | QGIYGYHHYMQ [UFSP2_Y287] | 1.03
15 | KSPDSYQKILL [ATM_Y1415] | 0.805
16 | PRLMLYNPTTF [EGFR_Y270_P266R_YF] | 0.968
17 | RRVPVYGGRGA [QDPR_Y16_L14P] | 0.852
18 | TEQDPYNNIVR [MMUT_Y364] | 0.857
19 | SHTPSYCDESL [RITA1_Y109] | 0.895
20 | HYPDVYAREQL [ALX3_Y181] | 0.802
21 | VCHELYNAIRD [PBRM1_Y54_T56A] | 0.893
22 | KSSDVYVSFDC [SORL1_Y136_Y141C_YF] | 1.15
23 | KILPEYLSNWT [AIFM1_Y347] | 1.03
24 | TVQVAYFTMMM [SPATA17_Y83_YF] | 0.745
25 | IGNGFYFRVFS [MYBPC3_Y1136_YF] | 0.964
26 | EQQNMYRLKVL [ABCC6_Y372] | 0.79
27 | QRIYQYIRSRF [DYRK1B_Y273_Q275R] | 0.844
28 | YETSHYPASPD [CTNND2_Y1217] | 0.739
29 | APEVIYATPGA [ABLtide_2014] | 0.691

molecular target: c-Src SH2; experiment: as above

Row | Sequence | SH2 binding enrichment
30 | MRALIYNSSTA [PLEKHA7_Y243] | 0.402
31 | ILTLKYPIELG [ACTA1_Y71_H75L] | 0.731
32 | QDEHGYIFRCF [HSPB1_Y133_S135F] | 0.566
33 | LSGFGYRLSDQ [PDCD6_Y124] | 0.545
34 | LEDDVYRKTCT [XPA_Y257_M256V] | 0.39
35 | RGNMFYENSFA [EGFR_Y113_YF] | 3.16
36 | CNPLRYPTIMI [OR6K6_Y160] | 0.458
37 | SLLTDYSPQLQ [OTC_Y345] | 0.517
38 | LIQRNYKLAAQ [ALPK2_Y1975] | 0.399
39 | ILTLKYPIEHG [ACTA1_Y71] | 0.502
40 | ESSKAYERALS [TTC37_Y1074] | 0.468
41 | CSSPTYRDCLQ [LARGE2_Y682_R677C] | 1
42 | YSMGCYEIYLG [HMGCL_Y198_S201Y] | 0.627
43 | QGIYGYHHYMQ [UFSP2_Y287] | 2.15
44 | KSPDSYQKILL [ATM_Y1415] | 1.24
45 | PRLMLYNPTTF [EGFR_Y270_P266R_YF] | 0.505
46 | RRVPVYGGRGA [QDPR_Y16_L14P] | 0.527
47 | TEQDPYNNIVR [MMUT_Y364] | 1.28
48 | SHTPSYCDESL [RITA1_Y109] | 0.678
49 | HYPDVYAREQL [ALX3_Y181] | 0.564
50 | VCHELYNAIRD [PBRM1_Y54_T56A] | 1.66
51 | KSSDVYVSFDC [SORL1_Y136_Y141C_YF] | 0.79
52 | KILPEYLSNWT [AIFM1_Y347] | 0.691
53 | TVQVAYFTMMM [SPATA17_Y83_YF] | 0.453
54 | IGNGFYFRVFS [MYBPC3_Y1136_YF] | 0.466
55 | EQQNMYRLKVL [ABCC6_Y372] | 0.499
56 | QRIYQYIRSRF [DYRK1B_Y273_Q275R] | 0.369
57 | YETSHYPASPD [CTNND2_Y1217] | 0.76
58 | APEVIYATPGA [ABLtide_2014] | 0.439

molecular target: SHP2-C SH2; experiment: as above

Row | Sequence | SH2 binding enrichment
59 | MRALIYNSSTA [PLEKHA7_Y243] | 0.486
60 | ILTLKYPIELG [ACTA1_Y71_H75L] | 0.94
61 | QDEHGYIFRCF [HSPB1_Y133_S135F] | 0.469
62 | LSGFGYRLSDQ [PDCD6_Y124] | 1.65
63 | LEDDVYRKTCT [XPA_Y257_M256V] | 0.291
64 | RGNMFYENSFA [EGFR_Y113_YF] | 1.26
65 | CNPLRYPTIMI [OR6K6_Y160] | 0.829
66 | SLLTDYSPQLQ [OTC_Y345] | 0.918
67 | LIQRNYKLAAQ [ALPK2_Y1975] | 0.649
68 | ILTLKYPIEHG [ACTA1_Y71] | 0.806
69 | ESSKAYERALS [TTC37_Y1074] | 0.571
70 | CSSPTYRDCLQ [LARGE2_Y682_R677C] | 1.15
71 | YSMGCYEIYLG [HMGCL_Y198_S201Y] | 0.641
72 | QGIYGYHHYMQ [UFSP2_Y287] | 1.67
73 | KSPDSYQKILL [ATM_Y1415] | 0.631
74 | PRLMLYNPTTF [EGFR_Y270_P266R_YF] | 0.631
75 | RRVPVYGGRGA [QDPR_Y16_L14P] | 0.774
76 | TEQDPYNNIVR [MMUT_Y364] | 0.649
77 | SHTPSYCDESL [RITA1_Y109] | 0.706
78 | HYPDVYAREQL [ALX3_Y181] | 0.471
79 | VCHELYNAIRD [PBRM1_Y54_T56A] | 0.737
80 | KSSDVYVSFDC [SORL1_Y136_Y141C_YF] | 0.782
81 | KILPEYLSNWT [AIFM1_Y347] | 0.873
82 | TVQVAYFTMMM [SPATA17_Y83_YF] | 0.704
83 | IGNGFYFRVFS [MYBPC3_Y1136_YF] | 1.06
84 | EQQNMYRLKVL [ABCC6_Y372] | 0.566
85 | QRIYQYIRSRF [DYRK1B_Y273_Q275R] | 0.428
86 | YETSHYPASPD [CTNND2_Y1217] | 0.723
87 | APEVIYATPGA [ABLtide_2014] | 0.672

molecular target: Hck (UniProt P08631); experiment: phosphorylation enrichment, bacterial display (enrichment ratio); higher = better substrate or ligand; peptides without Tyr show the background
Sequence (P08631 whole entry, looked up): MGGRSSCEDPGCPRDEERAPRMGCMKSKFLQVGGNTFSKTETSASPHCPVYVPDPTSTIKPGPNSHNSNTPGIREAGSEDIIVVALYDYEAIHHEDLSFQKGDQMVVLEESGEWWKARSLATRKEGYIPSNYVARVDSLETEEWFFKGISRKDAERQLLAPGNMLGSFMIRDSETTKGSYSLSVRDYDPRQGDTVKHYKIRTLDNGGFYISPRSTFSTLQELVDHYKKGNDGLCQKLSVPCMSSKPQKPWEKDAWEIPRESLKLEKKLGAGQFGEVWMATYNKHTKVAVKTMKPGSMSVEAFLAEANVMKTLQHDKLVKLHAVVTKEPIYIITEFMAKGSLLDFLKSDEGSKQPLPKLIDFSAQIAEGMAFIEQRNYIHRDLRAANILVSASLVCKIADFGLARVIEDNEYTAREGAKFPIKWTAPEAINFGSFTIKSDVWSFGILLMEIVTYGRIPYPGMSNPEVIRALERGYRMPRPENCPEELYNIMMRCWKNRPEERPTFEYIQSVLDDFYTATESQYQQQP

Row | Sequence | phosphorylation enrichment
88 | MRALIYNSSTA [PLEKHA7_Y243] | 0.647
89 | ILTLKYPIELG [ACTA1_Y71_H75L] | 0.518
90 | QDEHGYIFRCF [HSPB1_Y133_S135F] | 0.735
91 | LSGFGYRLSDQ [PDCD6_Y124] | 0.444
92 | LEDDVYRKTCT [XPA_Y257_M256V] | 1.17
93 | RGNMFYENSFA [EGFR_Y113_YF] | 0.479
94 | CNPLRYPTIMI [OR6K6_Y160] | 0.5
95 | SLLTDYSPQLQ [OTC_Y345] | 0.48
96 | LIQRNYKLAAQ [ALPK2_Y1975] | 0.833
97 | ILTLKYPIEHG [ACTA1_Y71] | 0.453
98 | ESSKAYERALS [TTC37_Y1074] | 0.444
99 | CSSPTYRDCLQ [LARGE2_Y682_R677C] | 0.473
100 | YSMGCYEIYLG [HMGCL_Y198_S201Y] | 4.95
101 | QGIYGYHHYMQ [UFSP2_Y287] | 8.27
102 | KSPDSYQKILL [ATM_Y1415] | 0.395
103 | PRLMLYNPTTF [EGFR_Y270_P266R_YF] | 0.618
104 | RRVPVYGGRGA [QDPR_Y16_L14P] | 0.702
105 | TEQDPYNNIVR [MMUT_Y364] | 0.555
106 | SHTPSYCDESL [RITA1_Y109] | 0.405
107 | HYPDVYAREQL [ALX3_Y181] | 1.14
108 | VCHELYNAIRD [PBRM1_Y54_T56A] | 2.62
109 | KSSDVYVSFDC [SORL1_Y136_Y141C_YF] | 2.16
110 | KILPEYLSNWT [AIFM1_Y347] | 0.481
111 | TVQVAYFTMMM [SPATA17_Y83_YF] | 0.59
112 | IGNGFYFRVFS [MYBPC3_Y1136_YF] | 0.45
113 | EQQNMYRLKVL [ABCC6_Y372] | 0.475
114 | QRIYQYIRSRF [DYRK1B_Y273_Q275R] | 1.05
115 | YETSHYPASPD [CTNND2_Y1217] | 0.421
116 | APEVIYATPGA [ABLtide_2014] | 9.6
